Reference: patent US20130023033A1, “PHARMACOLOGICALLY INDUCED TRANSGENE ABLATION SYSTEM” (The Trustees of the University of Pennsylvania, priority 2010, published 2013)
“Also recorded” adds a separate entry of the source. Each block holds one molecule with its values, some of them ahead of it.

Key:
[1] = molecular target: ZFHD-FKBP fusion with 3 copies of FKBP (3xFKBP) (UniProt P62942); experiment: cell-based or functional assay
[2] = tested on: pCMV.Luciferase reporter gene in HEK293 cells; experiment: Ablation of luciferase reporter by FokI ablators cotransfected with pCMV.Luciferase; assay type: cell-based, human; conditions: for expression of Luc reporter gene with increasing concentrations of ablator expression plasmid: 50 ng pCMV.Luciferase cotransfected with 6.25, 12.5, 25, 50 and 100 ng expression plasmid
Description: Open reading frames encoding for various endonucleases were codon optimized and de novo synthesized by GeneArt. Ablator expression and target plasmids were produced using standard molecular biological cloning techniques. Transfections were performed in HEK293 cells using Lipofectamine™ 2000 transfection reagent (Life Technologies). All transfections were performed using optimal transfection conditions as defined in transfection reagent protocol. Briefly, 200-250 ng plasmid DNA (excluding transfection control plasmid) was complexed with lipofectamine and added to cells in 96 well plates. DNA quantities were consistent across all conditions by supplementation with an unrelated plasmid containing the same promoter as test plasmids. Transfection complexes were incubated with cells for 4-6 hours as transfection reagent protocol before the addition of FBS supplemented media. Transfected cells were incubated at 37° C. for 24-72 hours. Following incubation, cells were assayed for reporter gene expression using Promega Dual Luciferase detection kit according to the manufacturer's instructions on a BioTek Clarity platereader and renilla luciferase was used to control for transfection efficiency. All samples were performed in quadruplicate and standard errors of the mean were calculated.

[3] = tested on: GFP-Luciferase driven by a promoter induced by the dimerized TF; experiment: In vivo model for a dimerizer-inducible system (Xenogen imaging of luciferase after rapamycin); parameters: species or system mouse; conditions: rapamycin 2 mg/kg IP
Excerpt: Four groups of three mice received IV injection of AAV vectors encoding bicistronic reporter genes (GFP-Luciferase) at doses of 3×10^10, 1×10^11 and 3×10^11 particles of virus, respectively: Group 1 (G 1, G2, and G3) received AAV vectors expressing GFP Luciferase under the control of ubiquitous constitutive CMV promoter (see FIG. 16A for a diagram of the DNA construct). Group 2 (G4, G5, and G6) received co-injection of the following 2 AAV vectors: (1) AAV vector expressing a dimerizable transcription factor domain unit (FRB fused with p65 activation domain and DNA binding domain ZFHD fused with 3 copies of FKBP) driven by the CMV promoter (the DNA construct shown in FIG. 9B; and (2) AAV vector expressing GFP-Luciferase driven by a promoter induced by the dimerized TF (see FIG. 19C for a diagram of the DNA constructs). Group 3 (G7, G8, and G9) received AAV vector expressing GFP-Luciferase under the control of a liver constitutive promoter, TBG (see FIG. 16C for a diagram of the DNA construct). Group 4 (G10, G11, G12) received co-injection of the following 2 AAV vectors: (1) AAV vector expressing a dimerizable transcription factor domain unit (FRB fused with p65 activation domain and DNA binding domain ZFHD fused with 3 copies of FKBP) driven by the TBG promoter; and (2) AAV vector expressing GFP-Luciferase driven by a promoter induced by the dimerized TF (see FIG. 16D for a diagram of the DNA constructs).
About 2 weeks post virus administration, the mice were given IP injection of the dimerizer, rapamycin, at the dose of 2 mg/kg. Starting the next day the luciferase expression was monitored by Xenogen imaging analysis. Approximately 24 hours post rapamycin injection, the mice were IP injected with luciferin, the substrate for luciferase, then anesthetized for imaging.

UniProt P62942, sequence (P62942 other isoform, or with tags, fused parts or gaps): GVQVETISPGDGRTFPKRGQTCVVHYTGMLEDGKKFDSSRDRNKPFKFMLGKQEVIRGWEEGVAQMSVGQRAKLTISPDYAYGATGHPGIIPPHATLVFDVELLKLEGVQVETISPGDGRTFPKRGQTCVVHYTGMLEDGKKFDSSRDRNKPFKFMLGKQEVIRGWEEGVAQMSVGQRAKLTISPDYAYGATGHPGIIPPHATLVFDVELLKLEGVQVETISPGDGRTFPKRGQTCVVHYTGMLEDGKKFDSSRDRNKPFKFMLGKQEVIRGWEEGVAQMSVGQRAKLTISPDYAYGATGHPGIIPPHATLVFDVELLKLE

luciferase expression in mice (Xenogen imaging) after rapamycin 2 mg/kg IP against pre-induction; Group 2, transcription factor domains driven by the CMV promoter [1]: 2 logs
luciferase expression in mice (Xenogen imaging) after rapamycin 2 mg/kg IP against pre-induction; Group 4, transcription factor domains driven by the TBG promoter [1]: > 100 fold
Molecule: FRB-TA fusion (FRB fragment of FRAP/mTOR, amino acids 2021-2113 with Thr2098Leu, fused to a 190 amino acid portion of human NF-KB p65)

Molecule: ZFHD-FokI: FokI catalytic domain fused to a zinc finger homeodomain DNA binding domain (SEQ ID NO: 21), from expression plasmid
expression of Luc reporter gene with increasing concentrations of ablator expression plasmid [2]: dose dependent ablation; also recorded: effectively ablated expression of luciferase reporter in a dose dependent manner

Molecule: CO[C@H]1C[C@@H]2CC[C@@H](C)[C@@](O)(O2)C(=O)C(=O)N2CCCC[C@H]2C(=O)O[C@H]([C@H](C)C[C@@H]2CC[C@@H](O)[C@H](OC)C2)CC(=O)[C@H](C)/C=C(\C)[C@@H](O)[C@@H](OC)C(=O)[C@H](C)C[C@H](C)/C=C/C=C/C=C/1C [rapamycin]
level of luciferase expression compared to level of pre-induction ([3]; Group 2 mice (TF unit driven by CMV promoter + inducible GFP-Luciferase vector), 3×10^11 particles, about 24 h post rapamycin): more than 2 logs
luciferase expression induced compared to pre-inducement ([3]; Group 4 mice (TF unit driven by TBG promoter + inducible GFP-Luciferase vector), 3×10^11 particles, about 24 h post rapamycin): more than 100 fold
peak level of luciferase expression over baseline ([3]; dimerizer-inducible system): more than 2 logs

B1: untethered FokI: FokI catalytic domain alone, 198 amino acids (SEQ ID NO: 14), from expression plasmid (protein)
chain: MKQLVKSELEEKKSELRHKLKYVPHEYIELIEIARNPTQDRILEMKVMEFFMKVYGYRGEHLGGSRKPDGAIYTVGSPIDYGVIVDTKAYSGGYNLPIGQADEMQRYVEENQTRNKHINPNEWWKVYPSSVTEFKFLFVSGHFKGNYKAQLTRLNHITNCNGAVLSVEELLIGGEMIKAGTLTLEEVRRKFNNGEINF
expression of Luc reporter gene with increasing concentrations of ablator expression plasmid [2]: no effect

B2: wild-type FokI: full-length FokI enzyme (SEQ ID NO: 12) expressed from cotransfected plasmid pCMV.FokI (protein)
chain: MFLSMVSKIRTFGWVQNPGKFENLKRVVQVFDRNSKVHNEVKNIKIPTLVKESKIQKELVAIMNQHDLIYTYKELVGTGTSIRSEAPCDAIIQATIADQGNKKGYIDNWSSDGFLRWAHALGFIEYINKSDSFVITDVGLAYSKSADGSAIEKEILIEAISSYPPAIRILTLLEDGQHLTKFDLGKNLGFSGESGFTSLPEGILLDTLANAMPKDKGEIRNNWEGSSDKYARMIGGWLDKLGLVKQGKKEFIIPTLGKPDNKEFISHAFKITGEGLKVLRRAKGSTKFTRVPKRVYWEMLATNLTDKEYVRTRRALILEILIKAGSLKIEQIQDNLKKLGFDEVIETIENDIKGLINTGIFIEIKGRFYQLKDHILQFVIPNRGVGTKQLVKSELEEKKSELRHKLKYVPHEYIELIEIARNPTQDRILEMKVMEFFMKVYGYRGEHLGGSRKPDGAIYTVGSPIDYGVIVDTKAYSGGYNLPIGQADEMQRYVEENQTRNKHINPNEWWKVYPSSVTEFKFLFVSGHFKGNYKAQLTRLNHITNCNGAVLSVEELLIGGEMIKAGTLTLEEVRRKFNNGEINF
expression of the luciferase reporter gene ([2]; 50 ng pCMV.Luciferase, 200 ng pCMV.FokI or transfected FokI protein (FIG. 25A)): effective ablated expression

B3: NLS-HTH-FokI: HTH-FokI with heterologous NLS added at the N-terminus of the coding sequence (protein)
chain: MPKKKRKVGRPPRLTKAEWEQAGRLLAQGIPRKQVALIYDVALSTLYKKHPAKRAHIENDDRINGTKQLVKSELEEKKSELRHKLKYVPHEYIELIEIARNPTQDRILEMKVMEFFMKVYGYRGEHLGGSRKPDGAIYTVGSPIDYGVIVDTKAYSGGYNLPIGQADEMQRYVEENQTRNKHINPNEWWKVYPSSVTEFKFLFVSGHFKGNYKAQLTRLNHITNCNGAVLSVEELLIGGEMIKAGTLTLEEVRRKFNNGEINF
modifications: SV40 NLS-Gin HTH-linker-FokI, coding sequence only; modified enzyme from SV40, Gin and FokI
activity (ablation of luciferase reporter) after adding heterologous NLS at the N-terminus ([2]; compared with HTH-FokI without NLS, separate experiment (FIG. 27B)): further improved

B4: HTH-FokI: HTH from Gin, linker and FokI catalytic domain (SEQ ID NO: 6), from expression plasmid (protein)
chain: MGRPPRLTKAEWEQAGRLLAQGIPRKQVALIYDVALSTLYKKHPAKRAHIENDDRINGTKQLVKSELEEKKSELRHKLKYVPHEYIELIEIARNPTQDRILEMKVMEFFMKVYGYRGEHLGGSRKPDGAIYTVGSPIDYGVIVDTKAYSGGYNLPIGQADEMQRYVEENQTRNKHINPNEWWKVYPSSVTEFKFLFVSGHFKGNYKAQLTRLNHITNCNGAVLSVEELLIGGEMIKAGTLTLEEVRRKFNNGEINF
expression of Luc reporter gene with increasing concentrations of ablator expression plasmid [2]: effectively ablated expression of luciferase reporter in a dose dependent manner
